The results in this text go back to article PMC8649222, “Exclusive inhibition of IL-6 trans-signaling by soluble gp130^FlyRFc” (Cytokine: X, 2021).

B1: sgp130Fc (Fc fusion, human, UniProt P40189 23-619, looked up)
chain: ELLDPCGYISPESPVVQLHSNFTAVCVLKEKCMDYFHVNANYIVWKTNHFTIPKEQYTIINRTASSVTFTDIASLNIQLTCNILTFGQLEQNVYGITIISGLPPEKPKNLSCIVNEGKKMRCEWDGGRETHLETNFTLKSEWATHKFADCKAKRDTPTSCTVDYSTVYFVNIEVWVEAENALGKVTSDHINFDPVYKVKPNPPHNLSVINSEELSSILKLTWTNPSIKSVIILKYNIQYRTKDASTWSQIPPEDTASTRSSFTVQDLKPFTEYVFRIRCMKEDGKGYWSDWSEEASGITYEDRPSKAPSFWYKIDPSHTQGYRTVQLVWKTLPPFEANGKILDYEVTLTRWKSHLQNYTVNATKLTVNLTNDRYLATLTVRNLVGKSDAAVLTIPACDFQATHPVMDLKAFPKDNMLWVEWTTPRESVKKYILEWCVLSDKAPCITDWQQEDGTVHRTYLRGNLAESKCYLITVTPVYADGPGSPESIKAYLKQAPPSKGPTVRTKKVGKNEAVLEWDQLPVDVQNGFIRNYTIFYRTIIGNETAVNVDSSHTEYTLSSLTSDTLYMVRMAAYTDEGGKDGPEFTFTTPKFAQGEIE
B2: sgp130^R281QFc (Fc fusion, human, UniProt P40189 23-619, looked up)
chain: ELLDPCGYISPESPVVQLHSNFTAVCVLKEKCMDYFHVNANYIVWKTNHFTIPKEQYTIINRTASSVTFTDIASLNIQLTCNILTFGQLEQNVYGITIISGLPPEKPKNLSCIVNEGKKMRCEWDGGRETHLETNFTLKSEWATHKFADCKAKRDTPTSCTVDYSTVYFVNIEVWVEAENALGKVTSDHINFDPVYKVKPNPPHNLSVINSEELSSILKLTWTNPSIKSVIILKYNIQYRTKDASTWSQIPPEDTASTQSSFTVQDLKPFTEYVFRIRCMKEDGKGYWSDWSEEASGITYEDRPSKAPSFWYKIDPSHTQGYRTVQLVWKTLPPFEANGKILDYEVTLTRWKSHLQNYTVNATKLTVNLTNDRYLATLTVRNLVGKSDAAVLTIPACDFQATHPVMDLKAFPKDNMLWVEWTTPRESVKKYILEWCVLSDKAPCITDWQQEDGTVHRTYLRGNLAESKCYLITVTPVYADGPGSPESIKAYLKQAPPSKGPTVRTKKVGKNEAVLEWDQLPVDVQNGFIRNYTIFYRTIIGNETAVNVDSSHTEYTLSSLTSDTLYMVRMAAYTDEGGKDGPEFTFTTPKFAQGEIE
B3: sgp130^FlyFc (Fc fusion, human, UniProt P40189 23-619, looked up)
chain: ELLDPCGYISPESPVVQLHSNFTAVCVLKEKCMDYFHVNANYIVWKTNHFTIPKEQYTIINRTASSVTFTDIASLNIQLYCNILTFGQLEFLVYGITIISGLPPEKPKNLSCIVNEGKKMRCEWDGGRETHLETNFTLKSEWATHKFADCKAKRDTPTSCTVDYSTVYFVNIEVWVEAENALGKVTSDHINFDPVYKVKPNPPHNLSVINSEELSSILKLTWTNPSIKSVIILKYNIQYRTKDASTWSQIPPEDTASTRSSFTVQDLKPFTEYVFRIRCMKEDGKGYWSDWSEEASGITYEDRPSKAPSFWYKIDPSHTQGYRTVQLVWKTLPPFEANGKILDYEVTLTRWKSHLQNYTVNATKLTVNLTNDRYLATLTVRNLVGKSDAAVLTIPACDFQATHPVMDLKAFPKDNMLWVEWTTPRESVKKYILEWCVLSDKAPCITDWQQEDGTVHRTYLRGNLAESKCYLITVTPVYADGPGSPESIKAYLKQAPPSKGPTVRTKKVGKNEAVLEWDQLPVDVQNGFIRNYTIFYRTIIGNETAVNVDSSHTEYTLSSLTSDTLYMVRMAAYTDEGGKDGPEFTFTTPKFAQGEIE
B4: Hyper IL-11 (HIL-11), IL-11 covalently linked to sIL-11R (other)
chain: SSPCPQAWGPPGVQYGQPGRSVKLCCPGVTAGDPVSWFRDGEPKLLQGPDSGLGHELVLAQADSTDEGTYICQTLDGALGGTVTLQLGYPPARPVVSCQAADYENFSCTWSPSQISGLPTRYLTSYRKKTVLGADSQRRSPSTGPWPCPQDPLGAARCVVHGAEFWSQYRINVTEVNPLGASTRLLDVSLQSILRPDPPQGLRVESVPGYPRRLRASWTYPASWPCQPHFLLKFRLQYRPAQHPAWSTVEPAGLEEVITDAVAGLPHAVRVSARDFLDAGTWSTWSPEAWGTPSTGTIPKEIPAWGQLHTQPEVEPQVDSPAPPRPSLQPHPRLLDHRDSVEQVAVLAPGPPPGPPRVSPDPRAELDSTVLLTRSLLADTRQLAAQLRDKFPADGDHNLDSLPTLAMSAGALGALQLPGVLTRLRADLLSYLRHVQWLRRAGGSSLKTLEPELGTLQARLDRLLRRLQLLMSRLALPQPPPDPPAPPLAPPSSAWGGIRAAHAILGGLHLTLDWAVRGLLLLKTRL

For assay [1], the target named is B4. Kind of assay: cell-based or functional assay.
The target of the assay “sgp130^R281QFc” is B2. Kind of assay: SPR; Biacore X100, multi-cycle; sgp130Fc variants captured on a Protein A chip (~500 RU); HIL-6 or HIL-11 injected at 0.1953-50 nM, 30 µl/min; 25 °C, PBS pH 7.4, 0.05% surfactant P20; 1:1 binding model. The note with it: both partners purified. On the technique in general: Surface plasmon resonance follows binding to a sensor surface in real time, without labels.

For assay [2], the target named is B3. Described as above. Particulars: both partners purified.
Assay [3] deals with B1. The description is as above. Particulars: both partners purified.
Assay [4] concerns the target B3. Briefly: SPR; sgp130Fc and sgp130^FlyFc captured on a ProtA chip; increasing concentrations of IL-27 injected. The note with it: both partners purified.
The target in assay [5] is B1. The description is as above. The note with it: both partners purified.

Turning to B1, the “IC50 of inhibition of H-IL-11 (10 ng/ml) induced proliferation of Ba/F3-gp130 cells (blocks HIL-11 from membrane-bound gp130)” value in assay [1] amounted to 0.12 nM.
Consider B2, for which the “IC50 of inhibition of H-IL-11 (10 ng/ml) induced proliferation of Ba/F3-gp130 cells (blocks HIL-11 from membrane-bound gp130)” value in assay [1] turned out to be 72.8 nM.
Consider B3, for which the “IC50 of inhibition of H-IL-11 (10 ng/ml) induced proliferation of Ba/F3-gp130 cells (blocks HIL-11 from membrane-bound gp130)” value in assay [1] was 40.7 nM.
By Kd is commonly meant the concentration at which binding is half-saturated. In the case of B4, the Kd with sgp130^R281QFc stood at 0.61 nM; in the assay with sgp130^FlyFc [2] it was 0.67 nM; with sgp130Fc [3], 0.069 nM.

B5: IL-27 (complex)
chain 1: FPRPPGRPQLSLQELRREFTVSLHLARKLLSEVRGQAHRFAESHLPGVNLYLLPLGEQLPDVSLTFQAWRRLSDPERLCFISTTLQPFHALLGGLGTQGRWTNMERMQLWAMRLDLRDLQRHLRFQVLAAGFNLPEEEEEEEEEEEEERKGLLPGALGSALQGPAQVSWPQLLSTYRLLHSLELVLSRAVRELLLLSKAGHSVWPLGFPTLSPQP
chain 2: RKGPPAALTLPRVQCRASRYPIAVDCSWTLPPAPNSTSPVSFIATYRLGMAARGHSWPCLQQTPTSTSCTITDVQLFSMAPYVLNVTAVHPWGSSSSFVPFITEHIIKPDPPEGVRLSPLAERQLQVQWEPPGSWPFPEIFSLKYWIRYKRQGAARFHRVGPIEATSFILRAVRPRARYYVQVAAQDLTDYGELSDWSLPATATMSLGK
As to B5, the results for the Kd with sgp130^FlyFc [4] and with sgp130Fc [5] were 58 nM and 69 nM, respectively.
